This assay addresses CAP256 SU gp140 (soluble cleavage-independent HIV-1 subtype C Env gp140 antigen) (HIV-1 subtype C, CAP256 SU virus). In words: SEC + native gel or EMSA; GNL affinity-purified protein in PBS pH 7.4, fractionated on Superdex 200 HiLoad 16/600; pooled peaks resolved by BN-PAGE (NativePAGE 3-12% Bis-Tris) and stained with Coomassie.

Turning to “CAP256 SU gp140 (soluble cleavage-independent HIV-1 subtype C Env gp140 antigen) (domain or fragment)”, the stoichiometry N worked out at 3.

The record behind these values is publication PMC6831737.
